Test results from the supplement of paper PMC9170038.

Test system: MS2 coat protein
Assay: apparent KD of MS2 coat protein; designed switch direction (-1 OFF switch, 1 ON switch): 1; higher = weaker reporter binding
How it was run: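 Normalised cluster fluorescence was curve-fitted, and each design's median over clusters is its apparent KD. Before this, SNAP-549-labelled MS2 coat protein was titrated from 0.7 or 1.5 nM, doubling to 3 µM, over RNA switches transcribed on Illumina chips by stalled E. coli RNA polymerase. Titrations had no input, 200 uM small-molecule ligand, or an oligonucleotide input, and steps lasted 0.8–1.5 h (lowest) to 10–20 min (highest).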

[1] = input ligand: microRNA oligo, concentration not stated
[2] = Eterna round: R95, input ligand: FMN 200 uM
[3] = Eterna round: R95, input ligand: microRNA oligo, concentration not stated
[4] = Eterna round: R95, input ligand: none

| Sequence | apparent KD of MS2 coat protein (input ligand: FMN 200 uM) | apparent KD of MS2 coat protein [1] | apparent KD of MS2 coat protein (input ligand: none) | apparent KD of MS2 coat protein [2] | apparent KD of MS2 coat protein [3] | apparent KD of MS2 coat protein [4] |
| --- | --- | --- | --- | --- | --- | --- |
| AGCACUUCAGAAGGAUAUGAGAUGCUAAGCAUCUUAGAAGGUCUGCCGUAAAGAAACGUCCACAUGAGGAUCACCCAUGUUGCA [Eternabot solution 28] (Eterna round: R96, puzzle: Same State NG 1) | 20.9 nM | 21.9 nM | 26 nM | – | – | – |
| AGCGAGAUAGGCAAGGAUAUGUAGUUUGGCACAUGAGGAUCACCCAUGUCAAUCCAUUUUUUGGAACAGAAGGUGCAUUCUCUUU [ak fourth] (puzzle: Same State 2) | – | – | – | 33.4 nM | 12.2 nM | 19.5 nM |
| AGCGUCCACACAGGAUAUCACCUGCACUGCAGGUGAGAAGGGUGACCGGUGCGCAAUAACGACAUGAGGAUCACCCAUGUAAAA [Vegea] (Eterna round: R96, puzzle: Same State NG 1) | 775 nM | 38.3 nM | 143 nM | – | – | – |
| AGCUAGUACCGAGGAUAUACAUACAUGAGGAUCACCCAUGUAUACAUGAUUUAAUGAGACUACAUGUAGAAGGCGGUACUAGCA [JL SSNG2 1.23] (Eterna round: R96, puzzle: Same State NG 2) | 22 nM | 68.6 nM | 79.1 nM | – | – | – |
| AGCUAUUAAUCAGGAUAUGGUGACAUGAGGAUCACCCAUGUAUUGAUGAUUAAAUGUGGUCAAUACCAGAAGGGAUUACUAACA [SameState NG2 #51] (Eterna round: R96, puzzle: Same State NG 2) | 44.6 nM | 401 nM | 537 nM | – | – | – |
| AGCUAUUACGAAGGAUAUAGGGACAUGAGGAUCACCCAUGUGUACAUGAGUAAAUGUGAUCACGUCUAGAAGGUUGUACUAACA [SameState NG2 #36] (Eterna round: R96, puzzle: Same State NG 2) | 474 nM | 383 nM | 430 nM | – | – | – |
| AGGAUGAGAACAGGAUAUUCGACAUGAGGAUCACCCAUGUGGCAAGUAGGUGACGAUGAAUGACGGAAGAAGGGUUACGAGGAG [Same State NG2] (Eterna round: R96, puzzle: Same State NG 2) | 375 nM | 197 nM | 199 nM | – | – | – |
| AGGCUCAGACGAGGAUAUGAUCAUGGCGCUUCGGCGCAUACAUGAGGAUCACCCAUGUAAAGUGAUCAGAAGGUGUCUGAGCCA [SSNG2/7-B1] (Eterna round: R96, puzzle: Same State NG 2) | 13.9 nM | 11 nM | 16.1 nM | – | – | – |
| AGGCUCAGAGCAGGAUAUAUGUGGUCACAUGAGGAUCACCCAUGUCUCGAGCUUCGGCUCGAGGCAUAGAAGGGCUCUGAGCCA [SSNG2/5-B1] (Eterna round: R96, puzzle: Same State NG 2) | 963 nM | 22.9 nM | 53.9 nM | – | – | – |
| AGGCUCAGCAUGCAGGAUAUAGUCGCUGCGACAUGAGGAUCACCCAUGUGGUGUGAAAGAAAGCGCUAGAAGGGUAAAGUGAGUG [Beeran] (puzzle: Same State 2) | – | – | – | 244 nM | 467 nM | 750 nM |
| AGGGAGGAAGCUGAGGAUAUCGUAAGGAGGACAUGAGGAUCACCCAUGUGUAUAGAAUUGGAGGACGAGAAGGCAGAGGAGUGGG [JR_SS2_Sub052] (puzzle: Same State 2) | – | – | – | 25.5 nM | 29.3 nM | 25.6 nM |
| AGGUGGUGUGGAAAGGAUAUACGGUUGAGGACAUGAGGAUCACCCAUGUGGUAGAGGACGUGAGUGUAGAAGGUUCGGGAUUGGU [JR_SS@_Sub023] (puzzle: Same State 2) | – | – | – | – | 48.5 nM | – |
| AGGUGGUGUGGAAAGGAUAUACUGUUGAGGACAUGAGGAUCACCCAUGUGGUAGAGGACGUAAGGGUAGAAGGUUCGGGAUUGGU [JR_SS@_Sub021] (puzzle: Same State 2) | – | – | – | 46.2 nM | 50.2 nM | 75.4 nM |
| AGUAUACAUGAGGAUCACCCAUGUCAGUAACUGACAGGAUAUGCGUUGCAUCACUGUAAUGCAGAAGGGUCUUGUA [Same State 1 - Mod of JMF's solution 1] (Eterna round: R96, puzzle: Same State 1) | 138 nM | 324 nM | 379 nM | – | – | – |
| AGUAUACAUGAGGAUCACCCAUGUCAGUAACUGACAGGAUAUGCGUUGCAUCACUGUAAUGCAGAAGGGUCUUGUA [Same State 1 - Mod of JMF's solution 1] (puzzle: Same State 1) | – | – | – | 98.2 nM | 181 nM | 415 nM |
| AGUCCAGCAUGAGCUGGACAAAAGCAUGUACAUGAGGAUCACCCAUGUUCAUGUACAAGCUUUUUGCUCGUCUUAAA [Mat - hsa-mir-208a - Mod of JL - 45] (puzzle: Sensor for hsa-mir-208a) | – | – | – | 807 nM | 17.5 nM | 562 nM |
| AGUCCAGCCUAAGCUGGACAAAAGCAUGUACAUGAGGAUCACCCAUGUCAUGUACAAGCUUUUUGCUCGUCUUAAAA [Mat - hsa-mir-208a - Mod of JL - D4] (puzzle: Sensor for hsa-mir-208a) | – | – | – | 684 nM | 16.1 nM | 550 nM |
| AGUCCAGCCUAAGCUGGACAAAAGCAUGUACAUGAGGAUCACCCAUGUUCAUGUACAAGCUUUUUGCUCGUCUUAAU [Mat - hsa-mir-208a - Mod of JL - 60] (puzzle: Sensor for hsa-mir-208a) | – | – | – | 608 nM | 18.1 nM | 697 nM |
| AGUCCAGCCUGAGCUGGACAAAAGCAUGUACAUGAGGAUCACCCAUGUCAUGUACAAGUUUUUUGCUCGUUUUAAUA [Zipper 49 - 18] (puzzle: Sensor for hsa-mir-208a) | – | – | – | 48.9 nM | 12.2 nM | 52 nM |
| AGUCCAGCCUGAGCUGGACAAAAGCAUGUACAUGAGGAUCACCCAUGUCAUGUAUAAGCUUUUUGCUCGUCUUAAUA [Zipper 49 - 11] (puzzle: Sensor for hsa-mir-208a) | – | – | – | 24 nM | 11 nM | 21.3 nM |
| AGUCCAGCCUGAGCUGGACAAAAGCAUGUACAUGAGGAUCACCCAUGUCAUGUAUAAGCUUUUUGCUCGUUUUAAUA [Zipper 49 - 16] (puzzle: Sensor for hsa-mir-208a) | – | – | – | 19.9 nM | 10.7 nM | 19 nM |
| AGUCCAGCCUGAGCUGGACAAAAGCAUGUACAUGAGGAUCACCCAUGUUCAUGUACAAGCUUUUUGCUCGUCUUACA [salish99_208a_r3_076] (puzzle: Sensor for hsa-mir-208a) | – | – | – | 467 nM | 14.4 nM | 483 nM |
| AGUCCAGCCUGAGCUGGACAAAAGCAUGUACAUGAGGAUCACCCAUGUUCAUGUACAAGCUUUUUGCUCGUCUUGCC [salish99_208a_r3_107x] (Eterna round: R96, puzzle: Sensor for hsa-mir-208a) | 774 nM | 15.5 nM | 623 nM | – | – | – |
